Results: patent US20180155451A1 (published 2018)

T1: FcγRIIb extracellular domain with C-terminal His tag (human, UniProt P31994 43-217)
T1 construct: extracellular domain; soluble receptor expressed in FreeStyle293 cells, used as analyte in Biacore; also called FcgRIIb; 2b; not shown: His tag attached to the C terminus
T1 sequence (looked up): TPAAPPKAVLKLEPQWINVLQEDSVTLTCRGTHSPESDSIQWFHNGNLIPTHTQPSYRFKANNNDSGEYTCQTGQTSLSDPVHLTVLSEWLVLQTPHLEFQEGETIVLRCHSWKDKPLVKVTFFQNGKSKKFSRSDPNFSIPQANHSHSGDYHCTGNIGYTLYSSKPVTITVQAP

B1: GpH7-A5/GpH7-B3 variant E269_19Q/GpL16-k0 (antibody, human IgG1, kappa)
heavy 1: not shown
heavy 2: not shown
light: DIVMTQSPLSLPVTPGEPASISCQASESLVHSNRNTYLHWYLQKPGQSPQLLIYKVSNRFSGVPDRFSGSGSGTDFTLKISRVEAEDVGVYYCSQNTHVPPTFGQGTKVEIERTVAAPSVFIFPPSDEQLKSGTASVVCLLNNFYPREAKVQWKVDNALQSGNSQESVTEQDSKDSTYSLSSTLTLSKADYEKHKVYACEVTHQGLSSPVTKSFNRGEC
notes: heterodimerized anti-glypican-3 IgG1; alteration in the GpH7-B3 chain only; also called He Ab
B2: GpH7-A5/GpH7-B3 variant S324_12R/GpL16-k0 (antibody, human IgG1, kappa)
heavy 1: not shown
heavy 2: not shown
light: B1 light
notes: as for B1
B3: GpH7-A5/GpH7-B3 variant E269_20W/GpL16-k0 (antibody, human IgG1, kappa)
heavy 1: not shown
heavy 2: not shown
light: B1 light
notes: as for B1
B4: GpH7-A5/GpH7-B3 variant E333_04F/GpL16-k0 (antibody, human IgG1, kappa)
heavy 1: not shown
heavy 2: not shown
light: B1 light
notes: as for B1
B5: GpH7-A5/GpH7-B3 variant S324_11K/GpL16-k0 (antibody, human IgG1, kappa)
heavy 1: not shown
heavy 2: not shown
light: B1 light
notes: as for B1
B6: GpH7-A5/GpH7-B3 variant P329_01G/GpL16-k0 (antibody, human IgG1, kappa)
heavy 1: not shown
heavy 2: not shown
light: B1 light
notes: as for B1
B7: GpH7-A5/GpH7-B3 variant Q295_12R/GpL16-k0 (antibody, human IgG1, kappa)
heavy 1: not shown
heavy 2: not shown
light: B1 light
notes: as for B1
B8: GpH7-A5/GpH7-B3 variant Q295_14T/GpL16-k0 (antibody, human IgG1, kappa)
heavy 1: not shown
heavy 2: not shown
light: B1 light
notes: as for B1
B9: GpH7-A5/GpH7-B3 variant Q295_02A/GpL16-k0 (antibody, human IgG1, kappa)
heavy 1: not shown
heavy 2: not shown
light: B1 light
notes: as for B1
B10: GpH7-A5/GpH7-B3 variant Q295_05P/GpL16-k0 (antibody, human IgG1, kappa)
heavy 1: not shown
heavy 2: not shown
light: B1 light
notes: as for B1
B11: GpH7-A5/GpH7-B3 variant P271_06M/GpL16-k0 (antibody, human IgG1, kappa)
heavy 1: not shown
heavy 2: not shown
light: B1 light
notes: as for B1
B12: GpH7-A5/GpH7-B3 variant Q295_07I/GpL16-k0 (antibody, human IgG1, kappa)
heavy 1: not shown
heavy 2: not shown
light: B1 light
notes: as for B1
B13: GpH7-A5/GpH7-B3 variant P329_02A/GpL16-k0 (antibody, human IgG1, kappa)
heavy 1: not shown
heavy 2: not shown
light: B1 light
notes: as for B1
B14: GpH7-A5/GpH7-B3 variant P271_07I/GpL16-k0 (antibody, human IgG1, kappa)
heavy 1: not shown
heavy 2: not shown
light: B1 light
notes: as for B1
B15: GpH7-A5/GpH7-B3 variant P271_16H/GpL16-k0 (antibody, human IgG1, kappa)
heavy 1: not shown
heavy 2: not shown
light: B1 light
notes: as for B1
B16: GpH7-A5/GpH7-B3 variant Q295_03V/GpL16-k0 (antibody, human IgG1, kappa)
heavy 1: not shown
heavy 2: not shown
light: B1 light
notes: as for B1
B17: GpH7-A5/GpH7-B3 variant P271_04F/GpL16-k0 (antibody, human IgG1, kappa)
heavy 1: not shown
heavy 2: not shown
light: B1 light
notes: as for B1
B18: GpH7-A5/GpH7-B3 variant D270_15Y/GpL16-k0 (antibody, human IgG1, kappa)
heavy 1: not shown
heavy 2: not shown
light: B1 light
notes: as for B1
B19: GpH7-A5/GpH7-B3 variant D270_13S/GpL16-k0 (antibody, human IgG1, kappa)
heavy 1: not shown
heavy 2: not shown
light: B1 light
notes: as for B1
B20: GpH7-A5/GpH7-B3 variant E333_05P/GpL16-k0 (antibody, human IgG1, kappa)
heavy 1: not shown
heavy 2: not shown
light: B1 light
notes: as for B1
B21: GpH7-A5/GpH7-B3 variant P271_03V/GpL16-k0 (antibody, human IgG1, kappa)
heavy 1: not shown
heavy 2: not shown
light: B1 light
notes: as for B1
B22: GpH7-A5/GpH7-B3 variant D270_19Q/GpL16-k0 (antibody, human IgG1, kappa)
heavy 1: not shown
heavy 2: not shown
light: B1 light
notes: as for B1
B23: GpH7-A5/GpH7-B3 variant S324_09D/GpL16-k0 (antibody, human IgG1, kappa)
heavy 1: not shown
heavy 2: not shown
light: B1 light
notes: as for B1
B24: GpH7-A5/GpH7-B3 variant Q295_11K/GpL16-k0 (antibody, human IgG1, kappa)
heavy 1: not shown
heavy 2: not shown
light: B1 light
notes: as for B1
B25: GpH7-A5/GpH7-B3 variant S324_10E/GpL16-k0 (antibody, human IgG1, kappa)
heavy 1: not shown
heavy 2: not shown
light: B1 light
notes: as for B1

target: T2, FcγRIa extracellular domain with C-terminal His tag (human, UniProt P12314 16-292); assay: SPR (Biacore), antibody captured on antigen peptide chip, FcγR as analyte; relative binding
T2 construct: extracellular domain; soluble receptor expressed in FreeStyle293 cells, used as analyte in Biacore; also called FcgRI; 1a; not shown: His tag attached to the C terminus
T2 sequence (P12314 16-292): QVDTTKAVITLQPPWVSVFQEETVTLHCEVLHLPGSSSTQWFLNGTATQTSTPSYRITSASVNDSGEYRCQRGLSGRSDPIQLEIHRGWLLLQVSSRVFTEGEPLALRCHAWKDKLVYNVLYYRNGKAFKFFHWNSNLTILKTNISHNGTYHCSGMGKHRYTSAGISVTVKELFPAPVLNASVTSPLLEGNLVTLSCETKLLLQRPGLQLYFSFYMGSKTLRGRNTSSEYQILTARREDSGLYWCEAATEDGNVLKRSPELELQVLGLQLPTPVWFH

He/Con_1a	Binder
105 % of control GpH7-A5/GpH7-B3/GpL16-k0 (=100)	B1
102 % of control GpH7-A5/GpH7-B3/GpL16-k0 (=100)	B2
105 % of control GpH7-A5/GpH7-B3/GpL16-k0 (=100)	B3
102 % of control GpH7-A5/GpH7-B3/GpL16-k0 (=100)	B4
102 % of control GpH7-A5/GpH7-B3/GpL16-k0 (=100)	B5
101 % of control GpH7-A5/GpH7-B3/GpL16-k0 (=100)	B6
100 % of control GpH7-A5/GpH7-B3/GpL16-k0 (=100)	B7
103 % of control GpH7-A5/GpH7-B3/GpL16-k0 (=100)	B8
104 % of control GpH7-A5/GpH7-B3/GpL16-k0 (=100)	B9
103 % of control GpH7-A5/GpH7-B3/GpL16-k0 (=100)	B10
102 % of control GpH7-A5/GpH7-B3/GpL16-k0 (=100)	B11
103 % of control GpH7-A5/GpH7-B3/GpL16-k0 (=100)	B12
102 % of control GpH7-A5/GpH7-B3/GpL16-k0 (=100)	B13
102 % of control GpH7-A5/GpH7-B3/GpL16-k0 (=100)	B14
102 % of control GpH7-A5/GpH7-B3/GpL16-k0 (=100)	B15
104 % of control GpH7-A5/GpH7-B3/GpL16-k0 (=100)	B16
102 % of control GpH7-A5/GpH7-B3/GpL16-k0 (=100)	B17
68.5 % of control GpH7-A5/GpH7-B3/GpL16-k0 (=100)	B18
75.3 % of control GpH7-A5/GpH7-B3/GpL16-k0 (=100)	B19
102 % of control GpH7-A5/GpH7-B3/GpL16-k0 (=100)	B20
102 % of control GpH7-A5/GpH7-B3/GpL16-k0 (=100)	B21
78.2 % of control GpH7-A5/GpH7-B3/GpL16-k0 (=100)	B22
104 % of control GpH7-A5/GpH7-B3/GpL16-k0 (=100)	B23
101 % of control GpH7-A5/GpH7-B3/GpL16-k0 (=100)	B24
105 % of control GpH7-A5/GpH7-B3/GpL16-k0 (=100)	B25

target: T1, FcγRIIb extracellular domain with …; assay: as above

He/Con_2b	Binder
44.3 % of control GpH7-A5/GpH7-B3/GpL16-k0 (=100)	B1
63.1 % of control GpH7-A5/GpH7-B3/GpL16-k0 (=100)	B2
42.5 % of control GpH7-A5/GpH7-B3/GpL16-k0 (=100)	B3
94.6 % of control GpH7-A5/GpH7-B3/GpL16-k0 (=100)	B4
68.6 % of control GpH7-A5/GpH7-B3/GpL16-k0 (=100)	B5
41.7 % of control GpH7-A5/GpH7-B3/GpL16-k0 (=100)	B6
65.2 % of control GpH7-A5/GpH7-B3/GpL16-k0 (=100)	B7
66.8 % of control GpH7-A5/GpH7-B3/GpL16-k0 (=100)	B8
79.7 % of control GpH7-A5/GpH7-B3/GpL16-k0 (=100)	B9
67.5 % of control GpH7-A5/GpH7-B3/GpL16-k0 (=100)	B10
77.5 % of control GpH7-A5/GpH7-B3/GpL16-k0 (=100)	B11
84.3 % of control GpH7-A5/GpH7-B3/GpL16-k0 (=100)	B12
40.5 % of control GpH7-A5/GpH7-B3/GpL16-k0 (=100)	B13
76.8 % of control GpH7-A5/GpH7-B3/GpL16-k0 (=100)	B14
67.9 % of control GpH7-A5/GpH7-B3/GpL16-k0 (=100)	B15
75.7 % of control GpH7-A5/GpH7-B3/GpL16-k0 (=100)	B16
59.5 % of control GpH7-A5/GpH7-B3/GpL16-k0 (=100)	B17
44.9 % of control GpH7-A5/GpH7-B3/GpL16-k0 (=100)	B18
44.2 % of control GpH7-A5/GpH7-B3/GpL16-k0 (=100)	B19
97.7 % of control GpH7-A5/GpH7-B3/GpL16-k0 (=100)	B20
74.8 % of control GpH7-A5/GpH7-B3/GpL16-k0 (=100)	B21
48 % of control GpH7-A5/GpH7-B3/GpL16-k0 (=100)	B22
85.8 % of control GpH7-A5/GpH7-B3/GpL16-k0 (=100)	B23
70.4 % of control GpH7-A5/GpH7-B3/GpL16-k0 (=100)	B24
77.4 % of control GpH7-A5/GpH7-B3/GpL16-k0 (=100)	B25
